{"source": "patent US9809653B2", "about": "“Anti-LAMP1 antibodies and antibody drug conjugates, and uses thereof” (SANOFI, priority 2012, dated 2017)", "molecules": {"B1": {"name": "MAb4: mouse monoclonal anti-LAMP1 antibody from hybridoma 88LAMP1-2, VH SEQ ID NO: 88, VL SEQ ID NO: 89 (antibody, listed as Mus musculus, V domains shown)", "VH": "QVQLQQSGAELVRPGTSVKVSCKASGYAFTNYLIEWVKQRPGQGLEWIGVINPGSGGTNYNEKFKGKATLTADKSSSTAYMQLSSLTSDDSAVYFCARYRSYDWYFDVWGAGTTVTVSS", "VL": "DIQMTQSPASLSASVGETVTITCRVSGNIHNYLAWYQQKQGKSPQLLVYNAKTLADGVPSRFSGSGSGTQYSLKINSLQPEDFGSYYCQHFWSNPYTFGGGTKLEIK"}}, "key": {"[1]": {"details": "cited from earlier work"}, "Colo205 cells": {"test_system": "Colo205 cells", "test": "Quenching of Alexa488 by anti-Alexa488 antibody, flow cytometry, internalized fraction", "format": "cell-based, human", "protocol": "Quantification of internalization can also be performed by fluorescence-based quenching methods. In particular, a fluorescence-based Alexa488-quenching method has been described to analyze internalisation of targeting agents (Frejd et al. 2010, International Journal of Oncology, 36: 757-763). According to said description, internalization is calculated as the Mean fluorescence intensity (MFI) value of quenched cells (intracellular compartments only) divided by the MFI value of unquenched cells (both cell surface and intracellular compartments) at 37° C., according to the following formula: […]\nThe cells were washed twice in ice cold PBS in a cold centrifuge, and resuspended in 500 nM quenching anti-Alexa488 antibody diluted in ice cold PBS. All tubes were incubated for 1 h on ice. Without washing, all cells were fixed in two volumes of 2% paraformaldehyde for 10 min at room temperature. The paraformaldehyde was removed by one wash in PBS, and the cells were resuspended in PBS and analyzed in a flow cytometer (Guava® easyCyte 8HT Flow Cytometry System).\nAn internalization positive control experiment was done in parallel with Alexa488-labelled Transferrin (600 nM).\nMean fluorescence intensity (MFI) values obtained from the flow cytometry reading of 5×10^4 cells per tube were used for all calculations. Internalization was calculated as the MFI value of quenched cells (intracellular compartments only) divided by the MFI value of unquenched cells (both cell surface and intracellular compartments) at 37° C. as described in the formula: […]"}, "[2]": {"target": "T1, cell surface LAMP1 on Patient-derived tumor xenografts and tumor cell lines (Homo sapiens, UniProt P11279)", "T1 construct": "endogenous in cells; host or cells: enzymatically dissociated patient-derived xenograft tumour cells (e.g. CR-IGR-034P, LUN-NIC-014P, BRE-IGR-0159) and tumour cell lines", "T1 sequence (P11279 29-417)": "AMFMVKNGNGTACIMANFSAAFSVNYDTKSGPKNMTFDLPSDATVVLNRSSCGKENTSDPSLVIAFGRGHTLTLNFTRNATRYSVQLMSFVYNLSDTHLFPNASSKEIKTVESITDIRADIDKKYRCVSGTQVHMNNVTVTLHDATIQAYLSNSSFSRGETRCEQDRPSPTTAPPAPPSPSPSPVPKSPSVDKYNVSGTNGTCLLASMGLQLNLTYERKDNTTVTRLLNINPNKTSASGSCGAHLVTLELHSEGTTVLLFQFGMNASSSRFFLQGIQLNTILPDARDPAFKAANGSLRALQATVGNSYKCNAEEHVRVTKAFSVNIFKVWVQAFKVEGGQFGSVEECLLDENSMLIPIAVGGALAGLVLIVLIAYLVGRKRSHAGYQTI", "test": "Antibody binding capacity (ABC) by FACS on patient-derived xenografts and tumor cell lines", "details": "FACS", "protocol": "Antibody binding capacity of antibody was determined using Mouse IgG Calibrator kit (Biocytex #7208) or Human IgG Calibrator Kit (Biocytex #CP010) according to the manufacturer's instructions.\nThe panel of tumor cells comprises Patient-derived tumor xenografts from different origins and tumor cell lines. FIG. 2 illustrates the expression profile and Table 4 summarizes the antibody binding capacity results.\n(§1) The panel of tumor cells comprises Patient-derived tumor xenografts from different origins and tumor cell lines."}, "[3]": {"target": "T2, patient-derived xenografts from colon, lung and breast origin and tumor cell lines (Homo sapiens, UniProt P11279)", "T2 construct": "endogenous in cells; host or cells: enzymatically dissociated patient-derived xenograft tumour cells (e.g. CR-IGR-034P, LUN-NIC-014P, BRE-IGR-0159) and tumour cell lines", "T2 sequence (P11279 29-417)": "T1 sequence (P11279 29-417)", "test": "Binding to patient-derived xenograft tumor cells by flow cytometry (mean fluorescence)", "details": "for Mean Florescence Intensity (MFI): FACS", "protocol": "Advanced human primary tumors from colon (CR-IGR-034P), lung (LUN-NIC-014P and breast (BRE-IGR-0159) indications were obtained from patient-derived xenograft (PDX) in mice as described in example 1. PDXs were enzymatically dissociated using collagenase Type IV (Invitrogen; #17104-019) and deoxyribonuclease I (Invitrogen, #18047-019) for 1 h at 4° C. Cell viability was estimated by Viacount application using Guava® easyCyte™ 8HT Flow Cytometry System. Tumoral cells were coated at 40,000 cells/well on 96-well High Bind plate (MSD L15XB-3) and 100 μL of antibody was added at 20 μg/mL for 45 min at 4° C. and washed three times with PBS 1% BSA. 100 μL of goat anti-human IgG conjugated with Alexa488 (Invitrogen; #A11013) was added for 45 min at 4° C. and washed three times with PBS 1% BSA. The antibody binding was evaluated after centrifugation and resuspension of cells by adding 200 μL/well PBS 1% BSA and read using Guava® easyCyte™ 8HT Flow Cytometry System. The mean fluorescence was recorded and plotted in the graph shown in FIG. 12 to illustrate the expression profile of the three mAbs onto the three PDXs.\nas §1"}, "recombinant human LAMP2": {"target": "T3, recombinant human LAMP2 (Homo sapiens, UniProt P13473)", "T3 construct": "purchased R&D Systems 6228-LM", "T3 sequence (P13473 with tags, fused parts or gaps)": "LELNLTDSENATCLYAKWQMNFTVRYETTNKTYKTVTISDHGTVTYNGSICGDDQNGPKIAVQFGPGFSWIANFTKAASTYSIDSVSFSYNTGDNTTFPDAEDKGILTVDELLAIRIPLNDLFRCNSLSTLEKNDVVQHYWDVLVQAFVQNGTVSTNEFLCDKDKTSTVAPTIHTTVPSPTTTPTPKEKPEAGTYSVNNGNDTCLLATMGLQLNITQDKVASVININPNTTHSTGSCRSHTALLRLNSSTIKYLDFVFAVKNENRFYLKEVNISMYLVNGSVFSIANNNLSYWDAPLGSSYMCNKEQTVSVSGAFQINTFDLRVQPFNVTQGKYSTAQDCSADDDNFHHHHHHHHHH", "test": "Specificity ELISA on recombinant human LAMP2", "format": "binding", "protocol": "LAMP2 is the closest member of the LAMP family with 35% sequence identity to LAMP1. […] Anti-LAMP1 antibodies were added to the plates and detected by using rabbit anti-mouse IgG conjugated with horseradish peroxidase (Sigma; #A9044). Antibody binding was visualized by adding TMB-H2O2 buffer and read at a wavelength of 450 nm.\nLAMP2 is the closest member of the LAMP family with 35% sequence identity to LAMP1. Specificity of MAb4 was evaluated by ELISA as described in example 4.6 with either LAMP1 or LAMP2 soluble proteins, as shown in FIG. 41."}, "[4]": {"target": "T4, LAMP1 in FFPE colon adenocarcinoma PDX CR-LRB-010P and human breast carcinoma (Homo sapiens, UniProt P11279)", "T4 construct": "from tissue; host or cells: human tumoral and non-tumoral tissue sections and PDX tumour sections (frozen-OCT, AFA, FFPE)", "T4 sequence (P11279 29-417)": "T1 sequence (P11279 29-417)", "test": "IHC on FFPE tumor tissue, LAMP1 membrane reinforcement", "details": "FFPE samples", "excerpt": "IHC analysis of tumor tissues from biobanks or from hospitals before or during patient treatment is routinely done with formalin-fixed paraffin-embedded (FFPE) samples. […] One of the reasons is probably the effect of the formalin fixative combined to the complexity of the protein. Samples processed in frozen OCT or AFA are not routinely prepared in hospitals. Therefore, there is a need to have a mAb that would allow complete and fast coverage of the FFPE tumor biobanks and hospital samples.\nRabbit polyclonal antibodies generated with peptides described in example 17.1.1 were tested by IHC on FFPE sample of colon adenocarcinoma patient derived xenograft CR-LRB-010P and human breast carcinoma. After antigen retrieval procedure and endogen biotins blocking steps, slides were incubated with the primary anti-antibody for 1 hour at 24° C. Negative controls were performed by omission of the primary antibody. The biotin free anti-rabbit UltraMap™ horseradish peroxidase (HRP) conjugate (760-4315, Ventana Medical Systems, Inc, USA) was used as secondary antibody system according to manufacturer's recommendations. A couterstaining step was done with hematoxylin (760-2037, Ventana Medical Systems, Inc, USA) and bluing reagent was applied (760-2037, Ventana Medical Systems, Inc, USA). Stained slides were dehydrated and coverslipped with cytoseal XYL (8312-4, Richard-Allan Scientific, USA).\nAs the same manner as in example 17.1.2, IHC screening was performed with the hybridoma supernatant to identify mouse monoclonal antibody showing LAMP1 membrane reinforcement on FFPE sample of colon adenocarcinoma patient derived xenograft CR-LRB-010P. The biotin free anti-mouse UltraMap™ horseradish peroxidase (HRP) conjugate (760-152, Ventana Medical Systems, Inc, USA) was used as secondary antibody system according to manufacturer's recommendations."}, "[5]": {"details": "Colo205, 4 h, 500 nM quenching anti-Alexa488 antibody"}}, "note": "Where two headings read alike, the source gives them in different places.", "data": [{"molecule": "transferrin: transferrin, literature internalization reference", "values": [{"measurement": "IS", "setting": "[1]; cells incubated at 37° C. for one hour", "result": 0.9}, {"measurement": "IS", "setting": "[1]; cells left on ice", "result": 0}]}, {"molecule": "Alexa488-Transferrin: internalization positive control", "values": [{"measurement": "MFI 4° C. Quencher", "setting": "Colo205 cells; [5]", "result": 8.98}, {"measurement": "MFI 37° C. Quencher", "setting": "Colo205 cells; [5]", "result": 1210}, {"measurement": "MFI 4° C.", "setting": "Colo205 cells; Colo205, 4 h, unquenched", "result": 35.78}, {"measurement": "MFI 37° C.", "setting": "Colo205 cells; Colo205, 4 h, unquenched", "result": 1228}, {"measurement": "total cell fluorescence that was intracellular", "setting": "Colo205 cells; Colo205, after 4 h at 37° C.", "result": "about 98.5%"}]}, {"molecule": "B1", "values": [{"measurement": "Antibody Binding Capacity (ABC)", "setting": "[2]; CR-IGR-034P/colorectal PDX", "result": "260 000"}, {"measurement": "Antibody Binding Capacity (ABC)", "setting": "[2]; Colo205/colon cell line", "result": 3000}, {"measurement": "Antibody Binding Capacity (ABC)", "setting": "[2]; LUN-NIC-006/lung PDX", "result": "92 000"}, {"measurement": "Antibody Binding Capacity (ABC)", "setting": "[2]; LUN-NIC-033/lung PDX", "result": "87 000"}, {"measurement": "Mean Florescence Intensity (MFI)", "setting": "[3]; BRE-IGR-0159/breast PDX", "result": 400}, {"measurement": "Mean Florescence Intensity (MFI)", "setting": "[3]; CR-IGR-034P/colorectal PDX", "result": 424}, {"measurement": "Mean Florescence Intensity (MFI)", "setting": "[3]; Colo205/colon cell line", "result": 7}, {"measurement": "Mean Florescence Intensity (MFI)", "setting": "[3]; LUN-NIC-006/lung PDX", "result": 162}, {"measurement": "Mean Florescence Intensity (MFI)", "setting": "[3]; LUN-NIC-033/lung PDX", "result": 154}, {"measurement": "binding to tumor cells by flow cytometry", "setting": "[3]; PDX and tumor cell lines", "result": "able of binding to multiple tumor cells"}, {"measurement": "binding to LAMP2", "setting": "recombinant human LAMP2", "result": "No binding"}, {"measurement": "difference between the EC50 towards LAMP1 versus LAMP2", "setting": "recombinant human LAMP2", "result": "more than 100 fold"}, {"measurement": "LAMP1 membrane reinforcement in FFPE format by IHC", "setting": "[4]", "result": "displayed membrane reinforcement immunostaining"}]}]}
